Measured values from US20240279318A1.
Substitutions are numbered along the chain they refer to.

B1: AS167821A-AS167821A-TCE-KIH (bispecific antibody, human IgG1, kappa, L234A L235A)
heavy: EVQLVESGGGLVQPGRSLRLSCAASGFTFDDYAMHWVRQAPGKGLEWVSGISWNSGSIGYADSVKGRFTISRDNAKNSLYLQMNSLRAEDTALYYCAKDSRGYGDYRLGGAYWGQGTLVTVSSASTKGPSVFPLAPSSKSTSGGTAALGCLVKDYFPEPVTVSWNSGALTSGVHTFPAVLQSSGLYSLSSVVTVPSSSLGTQTYICNVNHKPSDTKVDKKVEPKSCDKTHTCPPCPAPEAAGGPSVFLFPPKPKDTLMISRTPEVTCVVVDVSHEDPEVKFNWYVDGVEVHNAKTKPREEQYNSTYRVVSVLTVLHQDWLNGKEYKCKVSNKALPAPIEKTISKAKGQPREPQVYTLPPSREEMTKNQVSLWCLVKGFYPSDIAVEWESNGQPENNYKTTPPVLDSDGSFFLYSKLTVDKSRWQQGNVFSCSVMHEALHNHYTQKSLSLSPGK
light: not shown
chain: QVRLVESGGGSVQAGGSLRLSCAASGRTYSTYAMGWFRQAPGKEREGVATIYIGSGRTYYVDSVKGRFTISQDNAKNTLYLQMNNLKPEDTAMYYCTADVDPYESSWSRGLGYWGQGTQVTVSSGGGGSGGGGSGGGGSGGGGSGGGGSQVRLVESGGGSVQAGGSLRLSCAASGRTYSTYAMGWFRQAPGKEREGVATIYIGSGRTYYVDSVKGRFTISQDNAKNTLYLQMNNLKPEDTAMYYCTADVDPYESSWSRGLGYWGQGTQVTVSSEPKSSDKTHTCPPCPAPEAAGGPSVFLFPPKPKDTLMISRTPEVTCVVVDVSHEDPEVKFNWYVDGVEVHNAKTKPREEQYNSTYRVVSVLTVLHQDWLNGKEYKCKVSNKALPAPIEKTISKAKGQPREPQVYTLPPSREEMTKNQVSLSCAVKGFYPSDIAVEWESNGQPENNYKTTPPVLDSDGSFFLVSKLTVDKSRWQQGNVFSCSVMHEALHNRYTQKSLSLSPGK
B2: AS170036 VL1VH1-VHS57M (scFv)
scFv: QSALTQPRSVSGSPGQSVTISCAGTSSDVGSENYVSWYQQHPGKAPKLMIYQVNKRASGVPDRFSGSKSGNTASLTISGLQAEDEADYYCASYRSSDHNIVFGGGTKLTVLGGGGSGGGGSGGGGSEVQLVESGGGLVQPGGSLRLSCAASGFTFSSYAMSWVRQAPGKGLEWVSTINSGTGMPYYADSVKGRFTISRDNSKNTLYLQMNSLRAEDTAVYYCAKNFFDGSWFLGPPAMDYWGQGTLVTVSSHHHHHH
B3: AS170036 VL1VH1-VHG56N (scFv)
scFv: B2 scFv with G182N, M183S
B4: AS170036 VL1VH1-VHS57H (scFv)
scFv: B2 scFv with M183H
B5: AS170036 VL1VH1-VLH98I (scFv)
scFv: B2 scFv with H98I, M183S
B6: AS170036 VL1VH1-VLH98F (scFv)
scFv: B2 scFv with H98F, M183S
B7: AS170036 VL1VH1-VHG108S (scFv)
scFv: B2 scFv with M183S, G234S
B8: AS170036 VL1VH1-VLH98Q (scFv)
scFv: B2 scFv with H98Q, M183S
B9: AS170036 VL1VH1-VHG108D (scFv)
scFv: B2 scFv with M183S, G234D
B10: AS170036 VL1VH1-VHS57K (scFv)
scFv: B2 scFv with M183K
B11: AS170036 VL1VH1-VHG56Y (scFv)
scFv: B2 scFv with G182Y, M183S
B12: AS170036 VL1VH1-VHG108A (scFv)
scFv: B2 scFv with M183S, G234A
B13: AS170036 VL1VH1 (scFv)
scFv: B2 scFv with M183S
B14: 03-AS170036 VL1VH1-56Y98Q (scFv)
scFv: B2 scFv with H98Q, G182Y, M183S
B15: 75-AS170036 VL1VH1-57K98Q108S (scFv)
scFv: B2 scFv with H98Q, M183K, G234S
B16: 05-AS170036 VL1VH1-56N98I (scFv)
scFv: B2 scFv with H98I, G182N, M183S
B17: 48-AS170036 VL1VH1-56Y98Q108S (scFv)
scFv: B2 scFv with H98Q, G182Y, M183S, G234S
B18: 15-AS170036 VL1VH1-57M98Q (scFv)
scFv: B2 scFv with H98Q
B19: 10-AS170036 VL1VH1-57K98F (scFv)
scFv: B2 scFv with H98F, M183K
B20: 43-AS170036 VL1VH1-56Y98I108A (scFv)
scFv: B2 scFv with H98I, G182Y, M183S, G234A
B21: 70-AS170036 VL1VH1-57K98I108A (scFv)
scFv: B2 scFv with H98I, M183K, G234A
B22: 22-AS170036 VL1VH1-57H108A (scFv)
scFv: B2 scFv with M183H, G234A
B23: 34-AS170036 VL1VH1-98I108A (scFv)
scFv: B2 scFv with H98I, M183S, G234A
B24: 67-AS170036 VL1VH1-57K98F108A (scFv)
scFv: B2 scFv with H98F, M183K, G234A
B25: 45-AS170036 VL1VH1-56Y98I108S (scFv)
scFv: B2 scFv with H98I, G182Y, M183S, G234S
B26: 25-AS170036 VL1VH1-57K108A (scFv)
scFv: B2 scFv with M183K, G234A
B27: 16-AS170036 VL1VH1-56Y108A (scFv)
scFv: B2 scFv with G182Y, M183S, G234A
B28: 40-AS170036 VL1VH1-56Y98F108A (scFv)
scFv: B2 scFv with H98F, G182Y, M183S, G234A
B29: 19-AS170036 VL1VH1-56N108A (scFv)
scFv: B2 scFv with G182N, M183S, G234A
B30: 82-AS170036 VL1VH1-57M98Q108A (scFv)
scFv: B2 scFv with H98Q, G234A
B31: 27-AS170036 VL1VH1-57K108S (scFv)
scFv: B2 scFv with M183K, G234S
B32: 49-AS170036 VL1VH1-56N98F108A (scFv)
scFv: B2 scFv with H98F, G182N, M183S, G234A
B33: 42-AS170036 VL1VH1-56Y98F108S (scFv)
scFv: B2 scFv with H98F, G182Y, M183S, G234S

molecular target: other peptide-loaded T2 cells; assay: cell-based or functional assay

Binder | T cell redirected cell killing (LDH), 1 nM BsAb
B1 | < 20%

molecular target: AFP158 homologous peptides/HLA-A*02:01 complexes; assay: SPR, crude scFv captured, complexes as analyte

Binder | SPR response
B2 | < 3.5 RU
B3 | < 3.5 RU
B4 | < 3.5 RU
B5 | < 3.5 RU
B6 | < 3.5 RU
B7 | < 3.5 RU
B8 | < 3.5 RU
B9 | < 3.5 RU
B10 | < 3.5 RU
B11 | < 3.5 RU
B12 | < 3.5 RU

molecular target: group 1: ZNF566 and ARNTL homologous peptide/HLA-A*02:01 complexes (mixed); assay: SPR (BIAcore T200), crude scFv captured, mixed complexes flowed over

Binder | SPR binding level
B13 | 0.8 RU
B14 | 4 RU
B15 | 22.6 RU
B16 | 4.4 RU
B17 | 9.3 RU
B18 | 5.1 RU
B19 | 6.8 RU
B20 | 25.7 RU
B21 | 33.7 RU
B22 | 26.6 RU
B23 | 10.2 RU
B24 | 35.8 RU
B25 | 9 RU
B26 | 10.9 RU
B27 | 4.5 RU
B28 | 13.8 RU
B29 | 5 RU
B30 | 28.2 RU
B31 | 6.1 RU
B32 | 15.3 RU
B33 | 6.3 RU

molecular target: group 2: CDC14A, PTP4A1, BRCA2 and RCL1 homologous peptide/HLA-A*02:01 complexes (mixed); assay: as above

Binder | SPR binding level
B13 | 0.4 RU
B14 | 27.2 RU
B15 | 14.3 RU
B16 | 7 RU
B17 | 56.6 RU
B18 | 2.8 RU
B19 | 4 RU
B20 | 148 RU
B21 | 21.9 RU
B22 | 10 RU
B23 | 11.2 RU
B24 | 22.3 RU
B25 | 64.7 RU
B26 | 6.3 RU
B27 | 32.6 RU
B28 | 79.2 RU
B29 | 7.5 RU
B30 | 16.6 RU
B31 | 3.3 RU
B32 | 21.1 RU
B33 | 39.3 RU

molecular target: group 3: OR1I1, OR51B6, OR6C1, ATG9A, RP1 and NR2E1 homologous peptide/HLA-A*02:01 complexes (mixed); assay: as above

Binder | SPR binding level
B13 | 0.2 RU
B14 | 2.4 RU
B15 | 3.9 RU
B16 | 2 RU
B17 | 6.1 RU
B18 | 1.2 RU
B19 | 1 RU
B20 | 17.3 RU
B21 | 5.8 RU
B22 | 5.7 RU
B23 | 3.6 RU
B24 | 6.3 RU
B25 | 6 RU
B26 | 2 RU
B27 | 3.2 RU
B28 | 9.5 RU
B29 | 2.6 RU
B30 | 4.7 RU
B31 | 1.3 RU
B32 | 6.5 RU
B33 | 4.4 RU
